The target of the assay is T1, SARS-CoV-2 full-length nucleocapsid protein (NP) (SARS-CoV-2, reference (Wuhan-Hu-1; Gene …, UniProt P0DTC9).
T1 construct: also called full-length NP
The assay is described as follows: ELISA. Particulars: both partners purified. A general note: An ELISA detects its analyte on a solid surface through an enzyme-linked reagent.

B1: NbON10-NanoLuc fusion protein (VHH)
VHH: QVQLVQSGGGLVQPGGSLRLSCAASGLRLGYYTIAWFRQAPGKEREGISCISRSDGSTYYADSVKGRFTISTDNAENTVYLQMNSLKPEDTAVYYCAADFVPASHCAVANTRGYDYWGQGTQVTVSS
For B1, the binding result was “binds”.

The record behind these values is PMC10367427 (Frontiers in Immunology, 2023).
